# B1: TNFRII.Ig (TNFRII IgG fusion protein) (Fc fusion, human, UniProt P20333 23-257, looked up)
# chain: LPAQVAFTPYAPEPGSTCRLREYYDQTAQMCCSKCSPGQHAKVFCTKTSDTVCDSCEDSTYTQLWNWVPECLSCGSRCSSDQVETQACTREQNRICTCRPGWYCALSKQEGCRLCAPLRKCRPGFGVARPGTETSDVVCKPCAPGTFSNTTSSTDICRPHQICNVVAIPGNASMDAVCTSTSPTRSMAPGAVHLPQPVSTRSQHTQPTPEPSTAPSTSFLLPMGPSPPAEGSTGD
# modifications: labeled with SULFO-TAG NHS-ester as the detecting copy in the competitive blocking ELISA
# notes: TNF receptor II (TNFRSF1B), human, fused to Ig; detected with anti-human Fc); also called TNFRII.Fc
# B2: human LT-α3 (soluble lymphotoxin-α homotrimer) (ligand, UniProt P01374 35-205, looked up)
# chain: LPGVGLTPSAAQTARQHPKMHLAHSTLKPAAHLIGDPSKQNSLLWRANTDRAFLQDGFSLSNNSLLVPTSGIYFVYSQVVFSGKAYSPKATSSPLYLAHEVQLFSSQYPFHVPLLSSQKMVYPGLQEPWLHSMYHGAAFQLTQGDQLSTHTDGIPHLVLSPSTVFFGAFAL
# modifications: labeled with biotin in the competitive blocking ELISA only
# notes: lymphotoxin-alpha, human, recombinant soluble homotrimer; also called recombinant LT-α3; soluble LT-α
# Legend:
# [1] = biological target: human LT-α1β2 (lymphotoxin-α/lymphotoxin-β heterotrimer) (human) (UniProt P01374); assay: ELISA; competitive blocking ELISA (Meso Scale Discovery read-out): test molecule serially diluted, incubated 2 hr with biotinylated LT-α3 or LT-α1β2, captured on streptavidin plates 30 min, then SULFO-TAG TNFRII.Ig or LT-βR.Ig added 30 min
# [2] = biological target: human LT-α1β2 (lymphotoxin-α/lymphotoxin-β heterotrimer) (human) (UniProt P01374); assay: ELISA; wells coated overnight with 0.5-1 µg/ml human LT-α1β2 or LT-α3, blocked with PBS with 5 mg/ml BSA; LT-βR or TNFRII IgG fusion proteins added; detected with HRP goat F(ab')2 anti-human Fc and tetramethylbenzidine; EC50 by 4-parameter fit
# [3] = biological target: B2; assay: as above; settings: both partners purified
# [4] = biological target: B2; assay: ELISA; competitive blocking ELISA (Meso Scale Discovery read-out): test molecule serially diluted, incubated 2 hr with biotinylated LT-α3 or LT-α1β2, captured on streptavidin plates 30 min, then SULFO-TAG TNFRII.Ig or LT-βR.Ig added 30 min; settings: both partners purified
# [5] = biological target: B1; assay: as above; settings: both partners purified
molecule,measurement,setting,value
Human LT-βR.Ig (LT-βR IgG fusion protein) (from UniProt P36941 31-227) (Fc fusion),IC50,[1],100 pM
same,EC50,[2],48 pM
B1,EC50,[3],133 pM
same,IC50,[4],830 pM
B2,binding result,[5],binds
